Values quoted from earlier work in paper PMC3774674.

Biological target: E-cadherin EC12 (Mus musculus) (UniProt P09803)

Kd: 98.6 µM
Substance: E-cadherin EC12 (from UniProt P09803)
